Laboratory results from PMC4450660, “Biochemical and Structural Characterization of Enolase from Chloroflexus aurantiacus: Evidence for a Thermophilic Origin” (Frontiers in Bioengineering and Biotechnology, 2015).

Substrate: O=C(O)[C@@H](CO)OP(=O)(O)O
Test: purified protein
Format: biochemical, Chloroflexus aurantiacus
Conditions: 25 °C, pH 6.5, 50 mM Bis-Tris propane, 5 mM MgCl2, crystal structure with 2-PGA in active site, open conformation

B1: EnoCa (enolase-1 from Chloroflexus aurantiacus) (Chloroflexus aurantiacus J-10-fl) (protein)
chain: MSTLIEAIVAREVLDSRGNPTIEVDVRLESGDVGRAIVPSGASTGAHEALELRDGDKSRYNGKGVLKAVQAVNEDIAEALIGFDAADQIALDQELIALDGTPNKSKLGANAILGVSLAAAKAAAAAFGLPLYRYLGGVYAHVLPVPMMNIMNGGQHATNSTDFQEFMIMPVGAESFREGLRWGAEIYHMLKKVIHDRGFSTTVGDEGGFAPSLPTNDAPLQLIMEAIEKAGYRPGEQIVIALDPATTEIFEDGKYHLKREGRSLSSAEMVDYWVDLVNRYPIISLEDGLAEDDWEGWALLRAKLGDRVQLVGDDFLVTNVQRLQRAIEAKAANSILIKLNQIGSLTETLSAIQLAQRSGWTAVVSHRSGESEDVTIADLVVATNAGQIKTGAPARTDRIAKYNQLLRIEEELGSAARYAGRSAFKV
notes: native protein purified from C. aurantiacus cells, untagged; homodimer, subunit ~46 kDa, total ~92-96 kDa
- Km: 0.16 ± 0.01 mM
